Assay results from the supplement of paper PMC12042874.
± gives the uncertainty stated by the source.

test: amyloid nucleation score (Sup35N fusion, yeast selection) (log enrichment); library NNK3; higher = more nucleation; inactive = no reads after selection
Outline: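 Output and input plasmid inserts were sequenced by Illumina after psi-negative yeast carrying Sup35N fused to peptides of 20 random codons had been induced 24 hours with 100 μM copper sulfate and grown 7 days at 30°C on medium lacking adenine and uracil. The nucleation score is the DiMSum log enrichment of output over input reads, centred on the mode score of non-aggregating sequences. Sequences with under 100 input reads were excluded.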

Substance | amyloid nucleation score
MSLRLVMWFSNLVSYTV | inactive
DYSIAVGYWSFHVN | inactive
VSLIVLVRSVCSCVTHSFYE | 2.08 ± 0.097
GSTSRIPGVLVSKRRANMQH | inactive
CPCRHVFSRLSPF | inactive
IGITLFENHKFGLGLANVPG | inactive
VACHRS | inactive
CRVFRNNDYSKVSFWLVSVF | inactive
QSLIEPSD | inactive
NSVQAWPMIELEQPLKSLVQ | inactive
VETSCGRMHVLHLTGSGYSM | inactive
VSESSFRLCGGLRSGCLKSA | inactive
DKNSWLYSASEYIWFFNTES | inactive
ERLFRFENEDLVIFIYCSIL | inactive
ADVLFKFNSDMRRS | inactive
DNSGVSVQLRKVSESGSA | inactive
SYTSMFPRCQKIHLRQVRIS | inactive
FSYSSRGVYYG | -0.649 ± 0.98
LWLSDRNSLDSIAVCA | 1.24 ± 0.093
FCIECYL | inactive
VYFGSINYRRGGGYGYHSVI | 0.027 ± 0.71
WISSGDIGRVVDWIQVCIEP | inactive
TRWSVFKLRADDRNMQASKS | inactive

Substance | amyloid nucleation score
CAAIRGKL | inactive
IDYRMYYY | inactive
VASVWLDIPMYLFSQLRTKT | inactive
QVCPTLWYEVMCLN | inactive
SARRNSRTFLSLFVFHLFRA | inactive
IIGSFC | inactive
FNVRWGWLGDLIYGGFLHVG | inactive
NYWIHVNVAMRVNYYRFFMF | inactive
GFWLGVMVTHTSTTYSAFTP | 0.059 ± 0.29
HKITVNLS | inactive
FFRQQKYSVCLFGGTFIWVV | inactive
MNGMICISNCFKDGHVTLNK | 1.26 ± 0.16
VHYIVNYRGRILV | inactive
MITDSGIYFAFCWDKSTVSS | inactive
LYWATGLGVNFKFNLCLDDA | inactive
FVLKRYRCFLYLVQYDISTL | -0.326 ± 0.98
STPSTQDFVKQSLEARVLSS | inactive
SVYSITSCMHGVAQSEVMFD | 1.1 ± 0.16
GVPMCSWGMIILL | inactive
FAHVI | inactive
CSAIFCVVRGFRRVK | inactive
RFESHSL | inactive
FDVVWL | inactive

Substance | amyloid nucleation score
VVRLWE | inactive
QCVVVKCCWRDNRWLGSDLV | -0.178 ± 0.54
IRMQNLRFGSLKLAGFIMCD | inactive
IHRMMAYDFCRNLYFSEQWG | inactive
ESVNGTSFPVFIYHRTSFRL | 1.61 ± 0.069
GRSLCVVCSGLVWLCW | 2.19 ± 0.077
GTYLVSDAAGFYSWYLHYSF | inactive
FYEVRVRRVRVHVKEQPLLH | -0.406 ± 1.3
CGSVNVSTRYKD | inactive
LFGYSNSRRHMIGMQSY | inactive
VARNGDLF | inactive
AYWRREKMCSVPGGSWSGWV | inactive
FGMSQKSSRGWGLNV | inactive
CLDHIAPKRKIQEVGLS | inactive
SCIFNWFGFYNIINVFNLCF | 2.5 ± 0.053
CFSFYVGCGRMQEPPRLGAG | 0.785 ± 0.18
RLPRRSEDIKALRMDIRLYR | inactive
WCLNGSMYLLAVSSG | inactive
IALSTDSMPRYLEALRACGC | inactive
SNVEYCLYARLYLGCGVCHP | 0.176 ± 0.42
RPVTPC | inactive
VQSKMCVKYFWGRHTRHQLG | inactive
PRYRSLWFAKHMLAVLGSKW | inactive

Substance | amyloid nucleation score
SGLKQSPQLVLCAVRPRRSN | inactive
GCECGISHLVLGAKVVPSMI | inactive
FSACRDRTLGDHGQQPRDIG | inactive
SRHRNYHFCRILQCGFERSW | -0.526 ± 0.93
ADCPPRYRLPWGELGLRGEI | inactive
SLCFGTP | inactive
LIGSGV | inactive
SMLAFDLGGCAQTVTGWW | inactive
GLKNRVSGPPFASTYFWSAL | inactive
FLKYTITHLCSRPRIYLGIS | 0.16 ± 0.22
VTLCLSKLAF | 1.26 ± 0.097
KSRSYPCIEPNV | inactive
FLGSLVSLRCKWFVAF | 0.292 ± 0.75
SFNRGRLATLYSSLVHGRLR | inactive
SRSSWGPSAIPYYKKLFMLF | inactive
IDTAFRSYCYDFDLANDLMG | inactive
SGMDSKRKDSCLLCVHFHVS | inactive
CYCPHPNGESFCFSVSWDTN | inactive
NTRLSRLKIVFPCL | inactive
IRMHGWPYRLVREICFNGFF | 0.028 ± 0.5
LLAMRRIDWCSTPVTLILCR | inactive
HVFNGY | inactive
HLTLSAQRATSVVCERLQIS | inactive

Substance | amyloid nucleation score
STIKFTGFVYFSN | inactive
QCSMDRNT | inactive
FFIDYIHTYRYESSASMS | inactive
LCTSLLKF | -0.5 ± 0.9
YVSIWNHDADRGRC | inactive
ELFKEVCEGEFRAS | inactive
QVLASTNATESCRIDRDTVV | inactive
FSAIRVLYSVKTELDSNNMY | 0.822 ± 0.24
ICTVNMTNQSEC | inactive
TENKSMSFFNYDRAYARIL | inactive
LQCAHLFPV | 0.931 ± 0.099
HSLIVYHLS | inactive
WFAWIH | inactive
TNKRTYFWVF | 1.02 ± 0.097
YVFKMWLGPSSLIEFDLKRH | 2.88 ± 0.062
TLLVCNMWNFSRNIMVHIGV | inactive
FWTLDRLRMLYVAILQPWSD | inactive
VILQMT | inactive
CEYLGPVYIM | inactive
SWITHSIGSDTATGYETFFN | inactive
SVPMVLFRASLVMYGLMLSQ | 0.835 ± 0.12
KFKENMYLTYSCLHKVIMRF | inactive
HNSACFANSDEVSVASRAMT | 2.45 ± 0.08

Substance | amyloid nucleation score
VFMCLANYMFPIPGNRHVPP | 0.053 ± 0.75
LSVITVLNKKNRSDIMWIMI | inactive
YKNIFSWSPNSWTYKCSVNN | inactive
NVSYLGEVWYKFRLCVVCSR | 0.159 ± 0.27
GNSAYK | inactive
EIICLSLLCS | 2.18 ± 0.053
GKYVVIDIGRSYFSKISGFR | inactive
QIYSFFIWIEKTGVCRWLWA | inactive
LHVSTRFA | inactive
TFRIVRFCLKILTCRTC | inactive
DSFRDRGCQQKIEIF | inactive
GLRVQCWECTIRSFGV | 0.448 ± 0.24
SEVWKWMPDKCVSDGYVFDI | inactive
TRFLCSGV | inactive
MIIPSTVMQSLSTCILERAS | inactive
ITLLCTLYYGQPTLGVDLVL | inactive
MTVHDIHYLS | inactive
FWPMFSVVVRRRKFHSTPVH | inactive
RESDMRSAWGSDVVCLLGDS | 1.11 ± 0.15
NVALVRTGVIHWSYSVISRV | inactive
NLFMMHV | inactive
FGILSDIVCSTVVKNCDL | inactive
RRWSLRWNHLM | inactive

Substance | amyloid nucleation score
LKNFKSSAHLMQMIVLNFAY | inactive
RCGEDNLQGSLSTSTVGNLV | inactive
LIASGASIVFSRTESVRCNT | inactive
LCVDVS | inactive
LYFFYMPQTWVVSRCCGYNP | 3.06 ± 0.079
FSCDIAVILNLDLTMVDLLF | inactive
ICRLVLIWVPRSSGGVSSSR | inactive
DMVLSEPFFFGLCFLDFWIF | inactive
FVHRLPGWGSKLKTIRTCSN | inactive
HNFYKGFDYHLECMGADTGE | inactive
VYVMRGSVIWLCRMSMGCCA | inactive
PFSFCHLLLSKISIGWRYSL | inactive
ISESN | inactive
SETHLLQGDISVVMVLSAN | inactive
EGNYAYAVVSHAHFEV | inactive
VCFFRVKRSYSNIFYTRRCR | inactive
FELPSVKGGCILPSQILP | -0.517 ± 0.73
FYVVNSWPRMMCGQARILCL | inactive
RNNCCAKVIYKWLSTFGQTD | inactive
LQRGTQVYRCSLSFVRNVRF | inactive
YIAFCSRDSFRLVMRHNSGI | inactive
HQPGSRLI | inactive
